{
  "source": "patent US20070148130A1",
  "key": {"MPRN-20": {"tested_on": "T1, MPRN-20", "T1 sequence": "KGTEDSGTT"}, "MPRN-12": {"tested_on": "T2, MPRN-12", "T2 sequence": "NVKGTEDSG"}},
  "data": [
    {"substance": "partially purified native TRRE (pooled Phenyl Sepharose fractions with the highest specific activity, from stimulated THP-1 cells)", "values": [
      {"measurement": "TNF-R peptide cleavage activity (FRET assay) of Phenyl Sepharose elution fractions", "setting": "MPRN-20", "result": "Fractions 4-6 but not 7-10 also cleaved MPRN-20"},
      {"measurement": "TNF-R peptide cleavage activity (FRET assay) of Phenyl Sepharose elution fractions", "setting": "MPRN-12", "result": "The leading edge of the protein peak was found to give the highest FRET signal (shown here for MPRN-12)"},
      {"measurement": "specific activity in the FRET peptide cleavage assay", "setting": "MPRN-12", "result": "a specific activity of 378 FU/µg in the FRET assay using the MPRN-12 substrate"}
    ]}
  ]
}
